The record followed here is US20260193363A1.

The target of test [1] is EGFR and EGFRvIII on GBM39 cells (patient derived xenograft glioblastoma line). The test can be described thus: flow cytometry on GBM39 cells, antibody at 2 µg/ml.
The target is the same in test [2]. The test can be described thus: flow cytometry on GBM39 cells, antibody at 20 µg/ml.
Test [3] has the same target. Description: flow cytometry on GBM39 cells, antibody at 0.2 µg/ml. Background: In flow cytometry, cells or beads pass a laser one at a time.
The target of test [4] is EGFR loop peptide, His-tagged (EGFRlp-HIS) (human). The test can be described thus: BLI (Octet Red96), His-tagged antigen on Ni-NTA biosensors, antibody in solution, 30 C. Background: In BLI a coated tip is dipped into the sample, and binding shifts an interference pattern.
The target is the same in test [5]. The test can be described thus: BLI (Octet Red96), His-tagged antigen on Ni-NTA biosensors, conjugate in solution, 30 C.
Test [6] addresses EGFRvIII on F98npEGFRvIII cells (rat glioma F98 transfected with nonphosphorylated EGFRvIII). The test can be described thus: flow cytometry, antibodies added at 2 µg/ml, F98-npEGFRvIII cells.

B1: monoclonal antibody 40H3 (antibody, V domains shown)
VH: QVQLKQSGPGLVQPSQSLSITCTVSGFSLTNYGIHWLRQSPGKGLEWLGMMWRGGGTDYNAAFISRLTITKDTSKSQVFFRMNNLQTNDTAIYYCARKGVGMGLGYWGQGTSVTVSS
VL: DIQMTQSPASQSASLGESVTITCLASQTIGTWVAWYQQKPGRSPQLLIYGATNLADGVPSRFSGSGSGTKFSFKISSLQAEDFVSYYCQQLYSNPYTFGGGTKLEIK
As a reminder, the Kd is a measure of binding affinity in units of concentration. A low value points to higher affinity. The koff is the first-order rate constant of dissociation. The low end stands for a long-lived complex, the high end for a short-lived complex. In general, kon refers to a measure of how fast the partners come together. Low readings indicate slower complex formation, high ones faster complex formation. As to B1, the median fluorescent intensity in test [1] amounted to 10700. The same molecule registered a median fluorescent intensity in test [2] of 8600. Besides, the median fluorescent intensity in test [3] was determined as 9450. In test [4], this molecule displayed a Kd of 1.11 nM, a koff of 6.07e-05 s⁻¹ and a kon of 54900 M⁻¹ s⁻¹.

B2: 40H3 DM1 antibody drug conjugate (antibody, V domains shown)
VH: B1 VH
VL: B1 VL
Consider B2, for which, in test [5], the Kd stood at 0.442 nM, the koff turned out to be 8.95e-05 s⁻¹ and the kon was 202000 M⁻¹ s⁻¹.

B3: 40H3 MMAE antibody drug conjugate (antibody, V domains shown)
VH: B1 VH
VL: B1 VL
In test [5], B3 displayed a Kd of 0.0846 nM, a koff of 2.24e-05 s⁻¹ and a kon of 265000 M⁻¹ s⁻¹.

B4: monoclonal antibody 11G3 (antibody, V domains shown)
VH: QVQLKQSGPSLVQPSQSLSITCTVSGFSLTNYGVHWVRQSPGKGLEWLGVMWRGGRTDYNAAFMSRLSITKDNSRSQVFFKMNSLQTDDAAIYYCAKNGPFGNFAGYWGQGTLVTVST
VL: DIVMSQSPSSLPVSVGEKVSLTCKSSRSLLDNQKHYLAWYQQKPGQSPKLLIYWASTRESGVPDRFTGSGSGTEFTLTISSVKAEDLAVYYCQQFYNYPYTFGGGTKLEIK
As for B4, the Median : PE-A in test [6] came out at 1080.
